Test results from paper PMC11457862.
Substitutions are numbered along the chain they refer to. Names may count otherwise. Values belong to the binder of their own block, whether it stands above or below them.

How the values were obtained:
[1] = target: human IL-2 (amino acids 1-133), soluble, P60568; assay: yeast display titration; settings: chain shown with the change
[2] = target: human IL-2 (amino acids 1-133), soluble, P60568; assay: yeast display competition (IL-2 binding in the presence of soluble IL-2Rα competitor); settings: chain shown with the change; IL-2 5 nM; IC50 is the concentration of soluble IL-2Rα competitor (Dm27)
[3] = target: T1, biotinylated human IL-2Rβ ectodomain (amino acids 1-214) (human) (UniProt P14784); assay: BLI; same set-up as a3; equilibrium titration, first-order fit (Supplemental Figure 4A-C, Supplemental Table 4)
T1 sequence (chain, biotin on the biotin acceptor peptide (BirA ligase)): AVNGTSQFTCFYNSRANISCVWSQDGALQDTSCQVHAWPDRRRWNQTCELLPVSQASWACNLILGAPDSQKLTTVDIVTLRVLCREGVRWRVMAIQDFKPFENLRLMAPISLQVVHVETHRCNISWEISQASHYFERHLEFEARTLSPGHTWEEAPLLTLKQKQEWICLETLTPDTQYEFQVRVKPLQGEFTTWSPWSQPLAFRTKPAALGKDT

[4] = target: biotinylated human IL-2Rα ectodomain (amino acids 1-217) (human); assay: BLI; same set-up as a1; equilibrium titration of the response at the end of the association phase, first-order fit (Figures 2 and 3, Supplemental Table 1)
[5] = target: T1, biotinylated human IL-2Rβ ectodomain (amino acids 1-214) (human); assay: as above

- EC50 [1]: 0.0004 µM
- IC50 [2]: 1.12 µM
B1: yeast-displayed 602 scFv T101S; F225S; G227D (protein)
chain 1: EVQLQESGPGLVAPSQSLSITCTVSGFSLTNYDISWIRQPPGKGLEWLGVIWTGGGTNYNSGFMSRLSITKDNSKSQVFLKMNSLQTDDTAIYYCVRQGRSPYWGQGTLVTVSA
chain 2: DIQVTQSPSSLSVSLGDRVTITCKASKDIYNRLAWYQQKPGNAPRLLISGATSLETGVPSRFSGSGSGKDYTLTITSLQTEDVATYYCQQSWDTPYTFGGGTKLEIK

- Kd [3]: > 2 µM
- Kd [4]: > 2 µM
- Kd [5]: > 2 µM
B2: anti-human IL-2 antibody 602 (MAB602), recombinant mouse IgG2a kappa (antibody, V domains shown)
VH: B1 chain 1 with S101T
VL: B1 chain 2 with S91F, D93G
